Measurements reported in patent US10874712B2, “Methods, compounds and compositions for modulating blood brain barrier integrity and re-myelination” (University Health Network, priority 2015, dated 2020).

Experiments:
Type in all cases: in vivo, mouse
[1] = sRGMc level in sera of treated mice by ELISA
Description: Blood collected from the saphenous veins of mice induced with EAE at 0, 5, 10, 18 and 30 days in Microvette® CB300 capillary tubes (Starstedt) was spun down at 2000 rcf for 10 min and stored at −80° C. sRGMa and sRGMc in the sera were detected using ELISA kits for sRGMa (MRGMAO, R&D) and sRGMc (MRGMCO, R&D) according to manufacturer's instructions.
To ensure that over-expression of sRGMc was efficient, sera from 3 RGMc-treated mice were collected and compared to 3 vehicle-treated mice at 24 h post-treatment by ELISA. […] The mice were then observed and scored twice daily at 12 h intervals for 18 days. […] Whether intra-peritoneal (i.p) injections of RGMc could overcome the transient effects observed with intravenous administration of this protein was explored. […] Next the levels of RGMc in the sera of sham-treated animals and mice induced with EAE at day 10 as well as in EAE animals (day 10) that were injected with RGMc were analyzed. […] Thus, EAE reduced RGMc levels and over-expression of sRGMc in EAE-induced mice is beneficial in reducing the incidence and the severity as well as delaying the onset of disease.

EAE-induced mice [2] = experiment: Histological staining (H&E, Luxol Fast Blue) of cervical spinal cord, inflammatory index; conditions: EAE day 18; vs vehicle
Description: At day 18 post-EAE induction, mice were trans-cardially perfused with 20 mL PBS followed by 20 mL 4% paraformaldehyde in PBS (PFA) (Electron Microscopy Sciences) and 30 μm spinal cord cryosections were stained. The slides were washed in PBS for 3 min, followed by a 30 s wash in 50% ethanol (EtOH) and incubated overnight in Luxol Fast Blue (LFB) at 60° C. The sections were washed in 95% EtOH for 5 min, distilled water for 5 min prior to de-staining with […] for 10 min, and were then washed in 70% EtOH for 30 s, 5 min in MilliQ H2O, and sections were immersed in Harris Hematoxylin (Sigma-Aldrich) for 20 min and were rinsed in warm water to remove excess stain. Samples were dehydrated in 95% EtOH, immersed in alcoholic eosin Y (Sigma-Aldrich) for 15 s, dehydrated twice in 95% EtOH for 5 min, 100% EtOH for 5 min and xylene for 5 min. Slides were mounted with Permount (Fisher Scientific) and air-dried overnight at room temperature. Luxol Fast Blue (LFB) staining was quantified using relative staining intensity using Image J software. All intensities were normalized to a sham mouse spinal cord.
Cellular infiltration was quantified using an inflammatory index: 0, no inflammation; 1, cellular infiltration only in the perivascular areas and meninges; 2, mild cellular infiltration in the parenchyma (<10 cells); 3, moderate cellular infiltration in the parenchyma (10-49 cells); 4, moderate cellular infiltration in the parenchyma (50-99 cells); and 5, severe cellular infiltration in parenchyma (>100 cells).

EAE-induced mice [3] = experiment: Immunohistochemistry of spinal cord for CD3, B220, CD11b infiltrates; conditions: EAE day 18; vs vehicle
Description: Spinal cords were isolated and post-fixed with 4% PFA overnight at 4° C., washed 3× with PBS and soaked in 30% sucrose in PBS for 48 h. Tissues were then embedded in Optimal Cutting Temperature (OCT) compound. Frozen sections of spinal cords were cut at 10-30 μm with a cryostat, mounted on gelatinized slides, dried for 2 h and stored at −80° C. Sections were then re-hydrated in PBS for 5 min and permeabilized with PBST (0.3% Triton X-100 in PBS) for 5 min. The tissues were then blocked (PBS, 0.3% Triton X-100, 3% FBS) for 1 h at room temperature and incubated with the following primary antibodies overnight at 4° C. in a humidified chamber: anti-CD3 (145-2C11, BioLegend); CD11b (M1/70, BioLegend); B220 (RA3-6B2, BioLegend), DAPI (MMS-435P, Sigma), Fibrinogen (D9542, Innovative Research).

[4] = test system: mice with passively induced EAE; experiment: Adoptive transfer EAE, infiltration of CellVue-labelled cells into spinal cord; conditions: treated every 3 days; sacrificed day 8 after transfer; vs PBS
Description: Briefly, donor animals were immunized with 100 ug MOG(35-55) and sacrificed at day 10. Splenocytes were harvested and re-stimulated for 3 days with 33 ug/mL MOG(35-55) in the presence of 20 ng/ml rmIL-23. Cells were then labelled with CellVue Maroon and injected into recipient animals treated with RGMc or vehicle as well as PTx on day 0 and day 2. Recipient animals were treated every 3 days and sacrificed on day 8 and spinal cords sectioned for immunofluorescence staining.
Having shown that RGMc levels regulate the extravasation of molecules through the BBB, its role on cellular infiltration was evaluated. To do so, adaptive transfer using spleenocyte cells from MOG treated animals was performed. After collection of splenocyte cells were re-stimulated for 3 days with MOG, stained with Cellvue Maroon and injected into recipient mice treated with pertussis toxin. Following injection, animals received either PBS (Control) or RGMc every 3 days. Eight days after transfer animals were sacrificed and cellular infiltration was monitored using Cellvue-reporter. […] Thus, treatment with RGMc prevented T cell infiltration towards the CNS.

B1: sRGMc: truncated form of RGMc with the GPI anchor sequence removed, released as a soluble protein (SEQ ID NOs: 1 and 3) (protein, listed as Homo sapiens)
chain: CKILRCNAEYVSSTLSLRGGGSSGALRGGGGGGRGGGVGSGGLCRALRSYALCTRRTARTCRGDLAFHSAVHGIEDLMIQHNCSRQGPTAPPPPRGPALPGAGSGLPAPDPCDYEGRFSRLHGRPPGFLHCASFGDPHVRSFHHHFHTCRVQGAWPLLDNDFLFVQATSSPMALGANATATRKLTIIFKNMQECIDQKVYQAEVDNLPVAFEDGSINGGDRPGGSSLSIQTANPGNHVEIQAAYIGTTIIIRQTAGQLSFSIKVAEDVAMAFSAEQDLQLCVGGCPPSQRLSRSERNRRGAITIDTARRLCKEGLPVEDAYFHSCVFDVLISGDPNFTVAAQAALEDARAFLPDLEKLH
increase in sRGMc levels in sera compared to vehicle-treated animals ([1]; 24 h post-treatment, ELISA, 3 mice per group): 3 fold
RGMc levels in sera of EAE mice after RGMc injection ([1]; EAE day 10, compared to sham-treated animals): restored
stability of sRGMc treatment in serum ([1]; ELISA, FIG. 4F): stable for 24 h post treatment
extent of cellular infiltrates in cervical spinal cord (EAE-induced mice [2]): significantly reduced
extent of de-myelination (Luxol Fast Blue) (EAE-induced mice [2]): significantly reduced
inflammatory index score (EAE-induced mice [2]): significantly lower
infiltration of B220+ cells into cervical spinal cords (EAE-induced mice [3]): significantly reduced
infiltration of CD3+ cells into cervical spinal cords (EAE-induced mice [3]): significantly reduced
infiltration of Cd11b+ cells into cervical spinal cords (EAE-induced mice [3]): significantly reduced
accumulation of Cellvue+ cells within the spinal cord [4]: did not show accumulation
